This data set deals with MAS (methionine-alanine-serine) trimeric peptide.

“recombinant human methionine aminopeptidase type 1 (MetAP1) with N-terminal histidine tag”: the “enzymatic cleavage of peptide substrate” value is “showed enzymatic activity in cleaving a tripeptide MAS substrate”.

The record behind these values is patent US20040077031.
